Publication PMC4686830, “Ankyrin-mediated self-protection during cell invasion by the bacterial predator Bdellovibrio bacteriovorus” (Nature Communications, 2015)

T1: Bd3459:Bd3460 complex (Bd3459^M/Bd3460) (Bdellovibrio bacteriovorus, UniProt Q6MHT0, K38M)
T1 construct: 1:1 heterodimer; with Ankyrin repeat protein (self-protection protein)
T1 sequence (Q6MHT0 38-446 K38M): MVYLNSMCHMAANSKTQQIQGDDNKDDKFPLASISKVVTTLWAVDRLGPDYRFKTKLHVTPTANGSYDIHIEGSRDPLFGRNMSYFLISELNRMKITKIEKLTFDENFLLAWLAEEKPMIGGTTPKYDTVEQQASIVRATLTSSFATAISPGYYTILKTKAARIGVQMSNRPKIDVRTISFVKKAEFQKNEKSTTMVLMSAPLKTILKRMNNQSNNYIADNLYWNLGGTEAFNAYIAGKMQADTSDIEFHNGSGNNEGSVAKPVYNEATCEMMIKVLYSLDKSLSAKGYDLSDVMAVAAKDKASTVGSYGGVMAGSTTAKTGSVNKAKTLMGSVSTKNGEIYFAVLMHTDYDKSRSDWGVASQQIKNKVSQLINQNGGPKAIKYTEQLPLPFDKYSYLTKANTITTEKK
T1 sequence (Q6MHS9 25-220 A25M partner limits assumed): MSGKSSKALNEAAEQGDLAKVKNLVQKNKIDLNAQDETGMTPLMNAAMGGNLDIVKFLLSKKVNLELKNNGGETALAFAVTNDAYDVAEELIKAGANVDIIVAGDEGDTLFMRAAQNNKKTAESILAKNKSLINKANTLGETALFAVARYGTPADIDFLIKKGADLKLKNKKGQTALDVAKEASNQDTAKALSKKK

T2: Bd0816 DD-endopeptidase S58A (K26M start, C-terminal H8 tag) (Bdellovibrio bacteriovorus HD100, UniProt Q6MPN2 26-436, K26M | S58A)
T2 construct: Bd0816 of Bdellovibrio bacteriovorus HD100, starting at K26M; active site serine mutated to alanine (S58A); Expression of wild-type Bd0816 was toxic, so the S58A mutant was used for the complex; It is a trimer in the crystal, while a 1:1 heterodimer with Bd3460 is said to dominate in solution; also called Bd0816 S58A; tagged Bd0816; source: E. coli T7 express, co-expressed from pCDF-Duet1 with …
T2 sequence (looked up): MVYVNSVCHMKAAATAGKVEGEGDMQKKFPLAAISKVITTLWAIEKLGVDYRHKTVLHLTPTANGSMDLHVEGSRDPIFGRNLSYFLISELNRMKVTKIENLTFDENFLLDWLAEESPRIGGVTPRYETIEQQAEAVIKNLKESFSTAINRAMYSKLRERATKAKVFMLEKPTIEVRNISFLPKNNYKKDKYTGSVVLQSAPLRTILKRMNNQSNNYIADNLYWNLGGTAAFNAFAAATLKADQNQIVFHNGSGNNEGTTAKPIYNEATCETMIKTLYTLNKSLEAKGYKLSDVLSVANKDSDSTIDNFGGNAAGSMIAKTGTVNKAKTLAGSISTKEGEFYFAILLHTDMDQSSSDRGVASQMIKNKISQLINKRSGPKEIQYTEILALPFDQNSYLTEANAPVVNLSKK

T3: Bd3459 DD-endopeptidase, new construct starting post signal peptide with K38M, C-terminal H8 tag (Bdellovibrio bacteriovorus HD100, UniProt Q6MHT0 38-446, K38M)
T3 construct: Bd3459 of Bdellovibrio bacteriovorus HD100, predicted secreted form, starting post signal peptide with K38 mutated to become the new N-terminal methionine; The active site serine S70 is unchanged: the crystals of this complex could be acylated with penicillin G. PDB 5CEB holds the same limits with S70A; also called tagged Bd3459; Bd3459^M; source: E. coli T7 express, co-expressed from pCDF-Duet1 …
T3 sequence (looked up): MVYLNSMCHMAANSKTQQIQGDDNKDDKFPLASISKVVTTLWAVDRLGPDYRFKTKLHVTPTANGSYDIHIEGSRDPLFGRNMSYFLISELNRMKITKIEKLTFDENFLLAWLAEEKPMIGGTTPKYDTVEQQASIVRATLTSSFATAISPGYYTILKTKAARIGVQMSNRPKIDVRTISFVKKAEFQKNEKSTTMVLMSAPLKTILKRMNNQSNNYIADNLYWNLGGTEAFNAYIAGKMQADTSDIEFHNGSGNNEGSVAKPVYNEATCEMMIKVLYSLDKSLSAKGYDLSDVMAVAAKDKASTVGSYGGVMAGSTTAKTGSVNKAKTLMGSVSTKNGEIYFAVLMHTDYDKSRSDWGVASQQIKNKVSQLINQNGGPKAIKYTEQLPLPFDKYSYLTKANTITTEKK


Legend:
[1] = molecular target: T1, Bd3459:Bd3460 complex (Bd3459^M/Bd3460); assay: X-ray crystallography, […] A, crystal soak; type: binding; conditions: covalent; acylation of active-site serine (Ser70) of Bd3459; pre-grown complex crystals soaked with 2 mM penicillin G for 1 h
[2] = molecular target: Bd3459 DD-endopeptidase, purified, active site serine acylated by penicillin G (Bdellovibrio bacteriovorus HD100) (UniProt Q6MHT0); assay: other fluorescence titration; as a2, but Bd3459 pre-incubated with 0.75 mM penicillin G before titration with Bd3460
[3] = molecular target: Bd3459 DD-endopeptidase, purified (original construct, A37M start) (Bdellovibrio bacteriovorus HD100) (UniProt Q6MHT0); assay: other fluorescence titration; intrinsic tryptophan fluorescence, excitation 280 nm, change of emission at 340 nm; 10 uM Bd3459 in the cuvette, Bd3460 titrated in; 25 °C; buffer B with Tris (10 mM pH 7.2, 0.25 M NaCl); one site-specific binding isotherm
[4] = molecular target: T2, Bd0816 DD-endopeptidase S58A (K26M …); assay: co-purification (His-tag affinity); H8-tagged endopeptidase and untagged Bd3460 co-expressed in E. coli and purified together on a His column; buffer C (20 mM imidazole pH 8.0, 0.4 M NaCl, 0.05% w/v Tween20); conditions: partners not purified
[5] = molecular target: T3, Bd3459 DD-endopeptidase, new construct …; assay: as above; conditions: partners not purified

| Molecule | X-ray crystallography, 2.02 A, crystal soak [1] | fold reduction in affinity against unacylated Bd3459 [2] | Kd [3] | stoichiometry N [4] | stoichiometry N [5] |
| --- | --- | --- | --- | --- | --- |
| CC1(C)S[C@@H]2[C@H](NC(=O)Cc3ccccc3)C(=O)N2[C@H]1C(=O)O [penicillin G] | acylating pre-grown Bd3459:Bd3460 complex crystals with penicillin G |  |  |  |  |
| Bd3460, exported domain (amino acids 26-220), untagged, co-expressed with an endopeptidase (natural protein, Bdellovibrio bacteriovorus HD100, UniProt Q6MHS9 25-220, looked up, The only change is the start methionine in place of A25; also called untagged Bd3460; source: E. coli T7 express, co-expressed from pCDF-Duet1 with the H8-tagged endopeptidase, co-purified (His column)) MSGKSSKALNEAAEQGDLAKVKNLVQKNKIDLNAQDETGMTPLMNAAMGGNLDIVKFLLSKKVNLELKNNGGETALAFAVTNDAYDVAEELIKAGANVDIIVAGDEGDTLFMRAAQNNKKTAESILAKNKSLINKANTLGETALFAVARYGTPADIDFLIKKGADLKLKNKKGQTALDVAKEASNQDTAKALSKKK |  | 2 fold | 26.8 µM | 1 | 1 |
